The values below come from article PMC5840397.

The target in assay [1] is C-terminally His-tagged human ECRG4(71–148) (human) (UniProt Q9H1Z8). In words: SPR; ProteOn XPR36, GLM chip; His-tagged ECRG4 peptides captured by immobilised anti-His antibody; 2 × CTLD–Fc injected at 15.6–250 nM, 60 s association, 120 s dissociation; HBS (10 mM HEPES pH 7.4, 150 mM NaCl, 3 mM EDTA, 0.05% P20); Langmuir model.
The target of assay [2] is C-terminally His-tagged human ECRG4(71–132) (human) (UniProt Q9H1Z8). The assay is described as above.
In assay [3] the target is C-terminally His-tagged human ECRG4(32–148) (human) (UniProt Q9H1Z8). The assay is described as above.
Another assay has as its target LOX-1 (Homo sapiens) (UniProt P78380). The settings on record: cited from earlier work.

Sequence of C-terminally His-tagged human ECRG4(71–148) (human) (Q9H1Z8 71-148): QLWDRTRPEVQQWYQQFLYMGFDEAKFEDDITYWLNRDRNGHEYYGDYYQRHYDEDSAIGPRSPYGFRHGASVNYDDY
Sequence of CRP (P02741 19-224): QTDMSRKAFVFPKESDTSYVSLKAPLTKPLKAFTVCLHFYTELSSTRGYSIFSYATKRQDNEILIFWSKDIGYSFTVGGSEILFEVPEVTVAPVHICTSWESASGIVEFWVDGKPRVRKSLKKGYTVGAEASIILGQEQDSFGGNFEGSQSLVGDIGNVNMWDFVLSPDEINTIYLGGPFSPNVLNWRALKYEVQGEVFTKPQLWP
Sequence of C-terminally His-tagged human ECRG4(71–132) (human) (Q9H1Z8 71-132): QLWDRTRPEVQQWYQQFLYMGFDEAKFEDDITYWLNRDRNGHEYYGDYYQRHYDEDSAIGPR
Sequence of C-terminally His-tagged human ECRG4(32–148) (human) (Q9H1Z8 32-148): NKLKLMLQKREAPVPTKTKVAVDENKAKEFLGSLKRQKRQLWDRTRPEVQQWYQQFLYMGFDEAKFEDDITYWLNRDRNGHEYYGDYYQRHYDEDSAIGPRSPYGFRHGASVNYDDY

By Kd is commonly meant the constant that tells how readily two partners part at equilibrium. Turning to “2 × CTLD–Fc (two human LOX-1 CTLDs in tandem, Fc-fused) (Fc fusion)”, the Kd in assay [1], in assay [2] and in assay [3] was 10 nM throughout.
With CRP (from UniProt P02741), in the assay with LOX-1 (Homo sapiens), the Kd is 160 nM.
